Data reported in US20180237497A1 (CANCER RESEARCH TECHNOLOGY, published 2018).
Substitutions are numbered along the chain they refer to. Numbers in names are those of the source.

B1: IGF2R domain 11^AB5 (receptor)
chain: MKSNEHDDCQVTNPSTGHLFDLSSLSGRAGFTAAYAKGWGVYMSICGENENCPPGVGACFGQTRISVGKANKRLRYVDQVLQLVYKDGSPCPSKSGLSYKSVISFVCRPEAGPTNRPMLISLDKQTCTLFFSWHTPLACEQATECSV
notes: His6-tagged soluble domain 11; also called 1542YAKGWG1547
B2: domain 11^AB3 Q1569R P1597H S1602H (receptor)
chain: B1 chain with A36S, G38S, W39G, G40V, Q62R, P90H, S95H
notes: See m5
B3: domain 11^AB3 Q1569R P1597H S1602H G1603K (receptor)
chain: B1 chain with A36S, G38S, W39G, G40V, Q62R, P90H, S95H, G96K
notes: See m5
B4: domain 11^AB5 P1597H S1602H (receptor)
chain: B1 chain with P90H, S95H
notes: See m5
B5: domain 11^AB5 Q1569R P1597H G1603K (receptor)
chain: B1 chain with Q62R, P90H, G96K
notes: See m5
B6: domain 11^AB5 Q1569R P1597H S1602H (receptor)
chain: B1 chain with Q62R, P90H, S95H
notes: See m5

What was measured:
[1] = biological target: T1, human IGF2^1-67 (mature insulin-like growth factor 2) (human, UniProt P01344 25-91, biotinylated (site not stated) where immobilised on the chip (Tables 1-4)); experiment: SPR steady state, biotin-IGF2 on chip, pH 7.4
T1 construct: mature; also called mature IGF2; biotinylated IGF2
T1 sequence (P01344 25-91): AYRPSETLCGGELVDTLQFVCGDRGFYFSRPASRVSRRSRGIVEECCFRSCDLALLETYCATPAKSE
Procedure, shortened: (§1)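 Biacore SPR at 25 °C in HBS-EP pH 7.4 or MES-EP pH 6.5, flow 40 μL/min; ~50 RU biotin-IGF2:biotin-ubiquitin (1:8) on streptavidin chip, or Fc-domain 11 captured via anti-human IgG. Kinetics fitted to 1:1 model; steady-state affinity from response averaged 5 s before injection end.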

[2] = biological target: T1, human IGF2^1-67 (mature insulin-like …); experiment: SPR kinetic, biotin-IGF2 on chip, pH 7.4
Procedure, shortened: as §1

[3] = biological target: T1, human IGF2^1-67 (mature insulin-like …); experiment: SPR kinetic, biotin-IGF2 on chip, pH 7.4; remark: listed apart in the source
Procedure, shortened: (§2)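 Biotinylated IGF2 captured on streptavidin chip; recombinant M6P/IGF2R domain 11 mutants (E. coli or P. pastoris) injected at 25° C in HBS-EP, pH 7.4, 40 μL min⁻¹. Kinetics fitted to 1:1 model; steady-state KD from 5 s response averages before injection end; 2-5 repeats on two chips.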

[4] = biological target: T1, human IGF2^1-67 (mature insulin-like …); experiment: SPR
[5] = biological target: T1, human IGF2^1-67 (mature insulin-like …); experiment: SPR (Biacore T200, 25 °C, HBS-EP pH 7.4); ΔΔG° = RT ln(KD mutant / KD domain 11^AB3); box AB
Procedure: (§3) Boxes show the change in the binding free energy contribution, ΔΔGº, for the indicated mutants. The loop/s that contains the mutation/s is indicated in each box. The ΔΔGº values were calculated as ΔΔGº=ΔGº domain 11^mutant−ΔGº domain 11^AB3=RTln(KD domain 11^mutant/KD domain 11^AB3). Additive and non-additive contributions of single point mutations are shown when calculated with a box solid line and dashed line, respectively.
(§4) Final kinetic analysis of mutants by SPR was conducted using a Biacore T200 biosensor at 25° C. in either HBS-EP (10 mM HEPES pH 7.4, 150 mM NaCl, 3 mM EDTA, and 0.005% (v/v) surfactant P20) or MES-EP (20 mM MES pH 6.5, 150 mM NaCl, 3 mM EDTA, and 0.005% (v/v) surfactant P20) at a flow-rate of 40 μL min⁻¹. […] This interaction was also analysed by immobilizing the Fc-domain 11^AB5 and Fc-domain 11^AB5-RHH (or Fc-domain 11^I1572A as control) by Human Antibody Capture (monoclonal mouse anti-human IgG antibody immobilised on a CM5 chip by amine coupling, GE Healthcare) with and without human IgG1 Fc fragment (Bethyl Laboratories, UK) in the control flow cell. […] Steady state affinities were determined using the kinetic data, taking the response average at 5 seconds before injection end and for 5 seconds average.

[6] = biological target: T1, human IGF2^1-67 (mature insulin-like …); experiment: SPR steady state, biotin-IGF2 on chip, pH 7.4; remark: listed apart in the source
Procedure, shortened: as §2

[7] = biological target: T1, human IGF2^1-67 (mature insulin-like …); experiment: SPR kinetic, biotin-IGF2 on chip, pH 6.5
Procedure: Measurements were carried out at 25° C. in MES-EP buffer, 20 mM MES pH 6.5, 150 mM NaCl, 3 mM EDTA, and 0.005% (v/v) surfactant P20). Data for KD expressed as mean of each experiment, and means of kon and koff are shown.
(§5) Final kinetic analysis of mutants by SPR was conducted using a Biacore T200 biosensor at 25° C. in either HBS-EP (10 mM HEPES pH 7.4, 150 mM NaCl, 3 mM EDTA, and 0.005% (v/v) surfactant P20) or MES-EP (20 mM MES pH 6.5, 150 mM NaCl, 3 mM EDTA, and 0.005% (v/v) surfactant P20) at a flow-rate of 40 μL min⁻¹. […] For the analysis of the Fc-domain 11^AB5 interaction, approximately 50 RU of a biotinylated IGF2:biotinylated ubiquitin mixture (1:8 proportion) was immobilized on the CM5-streptavidin chip. This interaction was also analysed by immobilizing the Fc-domain 11^AB5 and Fc-domain 11^AB5-RHH (or Fc-domain 11^I1572A as control) by Human Antibody Capture (monoclonal mouse anti-human IgG antibody immobilised on a CM5 chip by amine coupling, GE Healthcare) with and without human IgG1 Fc fragment (Bethyl Laboratories, UK) in the control flow cell. […] T200 BiaEvaluation software (GE Healthcare) was used to fit the resulting curves according to a 1:1 binding model. Steady state affinities were determined using the kinetic data, taking the response average at 5 seconds before injection end and for 5 seconds average. Thermodynamic data was performed across the temperature range of 10° C. to 30° C., van't Hoff and Erying plots generated and ΔH, −TΔS and ΔG values determined as previously described.

[8] = biological target: T1, human IGF2^1-67 (mature insulin-like …); experiment: SPR (Biacore T200, 25 °C, HBS-EP pH 7.4); ΔΔG° = RT ln(KD mutant / KD domain 11^AB3); box AB+CD+FG+FG
Procedure: as §3, §4

[9] = biological target: T1, human IGF2^1-67 (mature insulin-like …); experiment: SPR, biotin-IGF2 on chip, lower pH (6.5); reference domain 11^WT
Procedure: as §5

[10] = biological target: T1, human IGF2^1-67 (mature insulin-like …); experiment: SPR, pH 7.4; pH 7.4
Procedure: as §5

[11] = biological target: T1, human IGF2^1-67 (mature insulin-like …); experiment: SPR (Biacore T200, 25 °C, HBS-EP pH 7.4); ΔΔG° = RT ln(KD mutant / KD domain 11^AB3); box AB+FG+FG, solid outline
Procedure: as §3, §4

[12] = biological target: T1, human IGF2^1-67 (mature insulin-like …); experiment: SPR (Biacore T200, 25 °C, HBS-EP pH 7.4); ΔΔG° = RT ln(KD mutant / KD domain 11^AB3); box AB+CD+FG+FG, dashed outline
Procedure: as §3, §4

[13] = biological target: T1, human IGF2^1-67 (mature insulin-like …); experiment: SPR (Biacore T200, 25 °C, HBS-EP pH 7.4); ΔΔG° = RT ln(KD mutant / KD domain 11^AB3); box AB+CD+FG+FG, solid outline
Procedure: as §3, §4

Binder	Kd [1]	Kd [2]	koff [2]	kon [2]	Kd [3]	koff [3]	kon [3]	fold higher affinity than domain 11^WT [4]	ΔΔG [5]	Kd [6]	Kd [7]	koff [7]	kon [7]	ΔΔG [8]	fold improved overall affinity compared to domain 11^WT [9]	Kd [10]	ΔΔG [11]	ΔΔG [12]	ΔΔG [13]
B1	6.44 nM	5.07 nM	0.0208 s⁻¹	4.21e+06 M⁻¹ s⁻¹	5.07 nM	0.0208 s⁻¹	4.21e+06 M⁻¹ s⁻¹	10 fold	-0.65 kcal/mol	6.44 nM	4.38 nM	0.018 s⁻¹	4.17e+06 M⁻¹ s⁻¹						
B2	1.53 nM	0.74 nM	0.01 s⁻¹	1.41e+07 M⁻¹ s⁻¹							0.4 nM	0.0064 s⁻¹	1.61e+07 M⁻¹ s⁻¹	-1.79 kcal/mol	100 fold				
B3	1.31 nM	0.62 nM	0.0108 s⁻¹	1.75e+07 M⁻¹ s⁻¹							0.43 nM	0.0087 s⁻¹	2.43e+07 M⁻¹ s⁻¹	-1.9 kcal/mol	100 fold	0.78 nM			
B4	2.93 nM	1.17 nM	0.0046 s⁻¹	3.5e+06 M⁻¹ s⁻¹							0.62 nM	0.0029 s⁻¹	5.32e+06 M⁻¹ s⁻¹				-1.52 kcal/mol		
B5	2.01 nM	0.87 nM	0.0058 s⁻¹	6.67e+06 M⁻¹ s⁻¹							0.69 nM	0.0051 s⁻¹	7.54e+06 M⁻¹ s⁻¹					-1.7 kcal/mol	
B6	2 nM	0.65 nM	0.0038 s⁻¹	5.9e+06 M⁻¹ s⁻¹							0.71 nM	0.003 s⁻¹	4.41e+06 M⁻¹ s⁻¹						-1.87 kcal/mol
